Source: publication doi:10.1101/2020.05.28.119206

Target: recombinant medaka ZI-3 precursor (Y74-V420) (medaka)
Assay: SEC-MALS

- stoichiometry N: 2
Substance: recombinant medaka ZI-3 precursor (Y74-V420) (domain or fragment)
